The results in this text go back to patent publication US20210170043A1 (Novartis, published 2021).

The chains are these.
B1: 960K03 Parental (antibody, V domains shown)
VH: QVTLRESGPALVKPTQTLTLTCTFSGFSLSTGGMCVSWIRQPPGKALEWLALIDWDDDKYYSTSLKTRLTISKDTSKNQLVLTMTNMDPVDTATYYCARAHSGSYFDFWGQGTLVTVSS
VL: DIQMTQSPSTLSASVGDRVTITCRASQRISNWLAWYQQKPGKAPKLLIYKASSLESGVPSRFSGSGSGTEFTLTISSLQPDDFATYYCQQFNSYWTFGQGTKVEIKR
B2: 952P16 Parental (antibody, V domains shown)
VH: QVTLRESGPALVKPTQTLTLTCTFSGFSLSTSGVSVSWIRQPPGKALEWLALIDWDDDKYYSTSLKTRLTISKDTSKNQVVLTMTNMDPVDTATYYCARTPSGSYGRYFDLWGRGTLVTVSS
VL: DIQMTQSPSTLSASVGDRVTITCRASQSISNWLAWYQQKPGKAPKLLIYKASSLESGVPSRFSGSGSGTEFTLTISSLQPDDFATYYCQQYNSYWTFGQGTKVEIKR
B3: 952G04 Parental (antibody, V domains shown)
VH: B2 VH with S37T, T70A
VL: B1 VL with R28S, N31T, K50E, F91Y
B4: 958N05 Parental (antibody, V domains shown)
VH: B2 VH with V34I
VL: B1 VL with M4L, R28S, S63T, F91Y
B5: 914M09 Parental (antibody, human IgG1, kappa, V domains shown)
VH: QVQLQESGPGLVKPSETLSLTCAVSGGSISSYYWNLIRQPAGKGLEWIGRIYTSGSTNYNPSLKSRVTMSVDTSKNQFSLKLSSVTAADTAVYYCARDSGGFYYYYGMDVWGQGTTVTVSS
VL: DIQLTQSPSFLSASVGDRVTITCRASQGISSYLAWYQQKPGKAPKLLIYAASTLQGGVPSRFSGSGSGTEFTLTISSLQPEDFATYHCQQLNSYPWTFGQGTKVEIKR
B6: 550E03 Parental (antibody, V domains shown)
VH: QVTLRESGPALVKPTQTLTLTCTFSGFSLSTSGMSVSWIRQPPGKALEWLALIDWDDDKYYSTSLKTRLTISKDTSKNQVVLTMTNMDPVDTATYYCARMALRHAFDAWGQGTMVTVSS
VL: QSVLTQPPSVSGAPGQRVTISCTGSSSNIGAGYDVHWYQQLPGTAPKLLIYVNSNRPSGVPDRFSGSKSGTSASLAITGLQAEDEADYYCQSYDSSLSGWVFGGGTKLTVLG
notes: also called 550Ee03
B7: 2B2 (parental antibody) (antibody, V domains shown)
VH: EVQLQQSGAELVRPGSSVKMSCKTSGYTFTNYGINWVKQRPGQGLEWIGYIYIGNDYTEYNERFKGKATLTSDTSSSTAHIQLNSLTSEDSAIYFCARLYYGSSLYSYAMDYWGQGTSVTVSS
VL: DIVMTQAAPSVSVTPGESVSISCRSSKSLLHSSGNTYLYWFLQRPGQSPQLLISRMSNLASGVPDRFSGSGSGTAFTLRISRVEAEDVGVYYCMQHLEYPYTFGGGTKLELK
notes: also called antibody 2B2
B8: 942K11 Parental (antibody, human IgG1, kappa, V domains shown)
VH: QVQLQESGPGLVKPSETLSLTCTVSGGSISSYYWTWIRQPAGKGLEWIGRVFTSESTNYNPSLKNRVTMSVDTSKNQFSLRLNSVTAADTAMYYCARDRGTYLGGFDPWGQGTLVTVSS
VL: not shown
B9: 906C18 Parental (antibody, V domains shown)
VH: EVQLVESGGGLVQPGGSLRLSCAASGFTFNNYWMNWVRQAPGKGLEWVANIRQDGSEKYYVDSVKGRFTISRDNAKNSLFLQMNSLRAEDTAVYYCARERAYCSTTSCPDYSNDYWGQGTLVTVSS
VL: EIVMTQSPATLSVSPGERATLSCRASQTINNNLAWFQQKPGQTPRLLIYGASTGATGIPARFSGSGSGTEFTLTISSLQSEDFAVYYCQQYNNWPRGLTFGGGTKVEIKR
B10: 956E02 Parental (antibody, human IgG1, kappa, V domains shown)
VH: QVQLVQSGAEVKKPGASVKVSCKASGYTFTGYYINWVRQAPGQGLEWMGWINPNSGDTNYAQKFQGRVTMTRDPSISTAYMELSRLRSDDTAVYYCARENSGYGKLFDYWGQGTLVTVSS
VL: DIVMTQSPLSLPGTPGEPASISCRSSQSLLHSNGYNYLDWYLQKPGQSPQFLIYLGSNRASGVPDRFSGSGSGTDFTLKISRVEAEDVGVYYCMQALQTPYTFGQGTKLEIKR
B11: 2B2 Hz (antibody, V domains shown)
VH: QVQLVQSGAEVKKPGASVKVSCKASGYTFTNYGINWVRQAPGQRLEWMGYIYIGNDYTEYNERFKGRVTITSDTSASTAYMELSSLRSEDTAVYYCARLYYGSSLYSYAMDYWGQGTTVTVSS
VL: DIVMTQSPLSLPVTPGEPASISCRSSKSLLHSSGNTYLYWFLQKPGQSPQLLISRMSNLASGVPDRFSGSGSGTDFTLKISRVEAEDVGVYYCMQHLEYPYTFGGGTKVEIKR
notes: also called humanized 2B2
B12: 2B2 Chimeric (antibody, V domains shown)
VH: B7 VH
VL: DIVMTQAAPSVSVTPGESVSISCRSSKSLLHSSGNTYLYWFLQRPGQSPQLLISRMSNLASGVPDRFSGSGSGTAFTLRISRVEAEDVGVYYCMQHLEYPYTFGGGTKLELKR
notes: Murine variable regions on human constant regions

Numbering of substitutions follows the chain as printed.

The first assay concerns the target T1, DC-SIGN Carbohydrate Recognition Domain (CRD), His-tagged (human, UniProt Q9NNX6 250-404).
T1 construct: also called DC-SIGN CRD; not shown: His tag used for capture
T1 sequence: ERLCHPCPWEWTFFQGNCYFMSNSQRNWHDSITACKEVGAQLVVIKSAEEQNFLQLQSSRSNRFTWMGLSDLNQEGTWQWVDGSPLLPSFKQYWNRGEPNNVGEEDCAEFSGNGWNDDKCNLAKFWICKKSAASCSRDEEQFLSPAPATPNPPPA
Kind of assay: SPR (Biacore 8K), His-tagged DC-SIGN CRD captured at high density on chip, antibody as analyte. For orientation: In SPR one partner is held on a chip, and binding of the other changes the refractive index at the surface.
As a reminder, the Kd is a measure of binding affinity in units of concentration. The molecule B1 came in with a dissociation constant (Kd) of 0.8 nM.

Molecule B2 returned a Kd of 3.8 nM.

Consider B3, for which binding was put at a Kd of 3.7 nM.

The molecule B4 registered a Kd of 1.7 nM.

The molecule B5 came in with a dissociation constant Kd of 10 nM.

B6 yielded a Kd of 5.8 nM.

In turn, B7 returned a Kd of 0.5 nM.

The molecule B8 had a Kd of 180 nM.

Turning to B9, binding was put at a Kd of 16 nM.

In the case of B10, binding was put at a Kd of 13 nM.

Another assay concerns the target T1, DC-SIGN Carbohydrate Recognition Domain …. In words: SPR (Biacore 8K), antibody captured on anti-human IgG Fc chip, DC-SIGN CRD as analyte.
The molecule B1 showed a Kd of 955 nM.

Take B2: the dissociation constant Kd turned out to be 395 nM.

As to B3, binding was characterised by a dissociation constant (Kd) of 346 nM.

The molecule B4 came in with a dissociation constant (Kd) of 174 nM.

The molecule B5 had a Kd of 830 nM.

Take B6: binding was characterised by a dissociation constant (Kd) of 523 nM.

On to B7, for which binding was characterised by a dissociation constant (Kd) of 32 nM.

Take B8: the Kd was 1260 nM.

Regarding B9, the affinity, expressed as Kd, was 1950 nM.

In the case of B10, the Kd is 999 nM.

For a further assay, the target named is T2, cynomolgus monkey DC-SIGN (full length, expressed on CHO cells) (cynomolgus monkey, UniProt Q95J96 1-403 (rhesus entry)).
T2 construct: also called cyno DC-SIGN; cyno DC-SIGN CHO
T2 sequence: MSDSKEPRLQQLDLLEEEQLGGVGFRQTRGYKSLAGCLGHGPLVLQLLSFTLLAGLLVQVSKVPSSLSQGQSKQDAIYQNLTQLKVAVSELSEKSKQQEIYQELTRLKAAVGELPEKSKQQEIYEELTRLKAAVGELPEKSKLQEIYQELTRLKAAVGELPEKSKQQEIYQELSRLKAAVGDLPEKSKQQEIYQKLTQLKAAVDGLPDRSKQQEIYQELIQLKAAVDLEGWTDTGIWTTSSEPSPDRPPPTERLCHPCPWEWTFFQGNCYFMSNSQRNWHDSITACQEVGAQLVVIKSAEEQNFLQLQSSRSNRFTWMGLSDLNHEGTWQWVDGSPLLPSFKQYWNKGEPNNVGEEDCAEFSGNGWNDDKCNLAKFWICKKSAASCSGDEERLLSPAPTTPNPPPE
Kind of assay: flow cytometry, IgG titrated on cyno DC-SIGN CHO cells. (In flow cytometry, cells or beads pass a laser one at a time.)
What is called EC50 is the midpoint of the concentration-response curve. B1 showed an EC50 of 0.02 µg/mL.

With B2, the concentration giving a half-maximal response (EC50) was determined as 0.02 µg/mL.

B3 gave an EC50 of 0.19 µg/mL.

B4 came in with a concentration giving a half-maximal response (EC50) of 0.08 µg/mL.

Regarding B11, the concentration giving a half-maximal response (EC50) was found to be 0.04 µg/mL.

In the case of B5, the concentration giving a half-maximal response (EC50) turned out to be 0.08 µg/mL.

As for B6, the EC50 was 0.39 µg/mL.

Consider B12, for which it took 0.32 µg/mL to reach a half-maximal effect (EC50).

For B8, the concentration giving a half-maximal response (EC50) came out at 11.6 µg/mL.

In turn, B9 showed a 50% effective concentration (EC50) of 0.77 µg/mL.

B10 had a concentration giving a half-maximal response (EC50) of 0.13 µg/mL.

The target in another assay is T3, human DC-SIGN (full length, expressed on cells) (human, UniProt Q9NNX6 1-404).
T3 construct: Also used for DC-SIGN on human monocyte-derived cells and on cells of human DC-SIGN transgenic mice in the functional rows; also called CD209; human DC-SIGN CHO
T3 sequence: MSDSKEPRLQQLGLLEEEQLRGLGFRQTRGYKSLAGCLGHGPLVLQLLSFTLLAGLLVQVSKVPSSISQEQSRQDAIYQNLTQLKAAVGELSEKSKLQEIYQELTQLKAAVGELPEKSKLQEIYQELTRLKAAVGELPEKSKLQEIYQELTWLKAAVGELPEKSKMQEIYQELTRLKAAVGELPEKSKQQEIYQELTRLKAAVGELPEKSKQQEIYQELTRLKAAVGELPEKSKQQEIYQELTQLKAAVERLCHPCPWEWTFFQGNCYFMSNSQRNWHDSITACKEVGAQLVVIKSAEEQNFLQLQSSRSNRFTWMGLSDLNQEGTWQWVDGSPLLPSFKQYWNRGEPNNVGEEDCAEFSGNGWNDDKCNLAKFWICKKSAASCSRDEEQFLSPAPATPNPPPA
Kind of assay: flow cytometry, IgG titrated on human DC-SIGN K562 cells.
As for B2, the EC50 is 0.04 µg/mL.

B3 returned an EC50 of 0.26 µg/mL.

For B4, the response was half-maximal at 0.05 µg/mL (EC50).

Molecule B11 returned a half-maximal effective concentration (EC50) of 0.27 µg/mL.

In turn, B5 registered a half-maximal effective concentration (EC50) of 0.25 µg/mL.

Molecule B6 yielded an EC50 of 1.5 µg/mL.

For the molecule B12, the midpoint of the response, the EC50, lay at 0.28 µg/mL.

B9 yielded a concentration giving a half-maximal response (EC50) of 1.72 µg/mL.

The target in the next assay is T3, human DC-SIGN (full length, expressed …). Kind of assay: flow cytometry, IgG titrated on human DC-SIGN CHO cells.
Consider B1, for which a half-maximal effect (EC50) was put at 0.1 µg/mL.

With B2, the EC50 was 0.06 µg/mL.

Molecule B3 yielded an EC50 of 0.11 µg/mL.

B4 gave an EC50 of 0.07 µg/mL.

As for B11, the EC50 was determined as 0.06 µg/mL.

Turning to B5, a half-maximal response (EC50) required 0.1 µg/mL.

In turn, B6 showed an EC50 of 0.26 µg/mL.

B12 returned a concentration for a half-maximal effect (EC50) of 0.23 µg/mL.

Molecule B8 showed an EC50 of 0.2 µg/mL.

Turning to B9, the EC50 is 0.21 µg/mL.

B10 returned an EC50 of 0.12 µg/mL.
